Consider 4 molecules from patent US20230053214A1 (MACQUARIE UNIVERSITY, published 2023).

The target in test [1] is T1, rat PSD95 (FLAG-PSD-95), expressed in transfected cells (rat, UniProt P31016 1-724).
T1 construct: eGFP-PSD-95 (293T lysate) was used for microscale thermophoresis and PSD-95 internally tagged with mCherry for FLIM/FRET; not shown: FLAG tag
In words: co-IP from transfected cells, immunoblot.

Test [2] deals with T2, human tau (441 amino acids), wild-type (human, UniProt P10636 1-758).
T2 construct: Expressed in transfected cells for co-IP; GST-tau (E. coli) was used for microscale thermophoresis and GST pulldown, eGFP-tau for FLIM/FRET, recombinant tau for kinase assays; also called hTau40; WT tau; not shown: V5 tag from vector pcDNA3.2/V5-DEST
In words: co-IP with V5-tagged tau from transfected cells, immunoblot.

Test [3] addresses T1, rat PSD95 (FLAG-PSD-95), expressed in …. In words: co-IP with PSD-95 from transfected cells, immunoblot.

T1 sequence (P31016 whole entry): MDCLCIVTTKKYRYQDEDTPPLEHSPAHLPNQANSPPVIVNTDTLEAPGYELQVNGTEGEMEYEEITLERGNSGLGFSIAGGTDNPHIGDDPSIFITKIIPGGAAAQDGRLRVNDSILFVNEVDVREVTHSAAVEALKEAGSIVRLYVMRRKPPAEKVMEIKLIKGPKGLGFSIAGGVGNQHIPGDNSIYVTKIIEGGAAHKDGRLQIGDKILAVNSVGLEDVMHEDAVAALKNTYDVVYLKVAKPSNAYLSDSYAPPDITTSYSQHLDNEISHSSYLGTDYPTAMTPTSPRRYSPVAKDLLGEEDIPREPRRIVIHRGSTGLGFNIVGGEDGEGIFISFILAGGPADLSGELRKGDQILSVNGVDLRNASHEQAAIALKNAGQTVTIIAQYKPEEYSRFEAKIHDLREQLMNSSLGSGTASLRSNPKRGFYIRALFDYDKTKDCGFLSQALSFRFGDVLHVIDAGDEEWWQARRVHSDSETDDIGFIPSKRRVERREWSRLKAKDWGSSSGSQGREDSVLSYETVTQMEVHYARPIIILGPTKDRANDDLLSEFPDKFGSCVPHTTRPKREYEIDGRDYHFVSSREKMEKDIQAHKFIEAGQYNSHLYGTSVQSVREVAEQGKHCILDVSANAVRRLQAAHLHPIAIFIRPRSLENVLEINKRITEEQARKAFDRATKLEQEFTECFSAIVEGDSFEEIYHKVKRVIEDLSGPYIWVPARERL
T2 sequence (P10636 other isoform, or with tags, fused parts or gaps): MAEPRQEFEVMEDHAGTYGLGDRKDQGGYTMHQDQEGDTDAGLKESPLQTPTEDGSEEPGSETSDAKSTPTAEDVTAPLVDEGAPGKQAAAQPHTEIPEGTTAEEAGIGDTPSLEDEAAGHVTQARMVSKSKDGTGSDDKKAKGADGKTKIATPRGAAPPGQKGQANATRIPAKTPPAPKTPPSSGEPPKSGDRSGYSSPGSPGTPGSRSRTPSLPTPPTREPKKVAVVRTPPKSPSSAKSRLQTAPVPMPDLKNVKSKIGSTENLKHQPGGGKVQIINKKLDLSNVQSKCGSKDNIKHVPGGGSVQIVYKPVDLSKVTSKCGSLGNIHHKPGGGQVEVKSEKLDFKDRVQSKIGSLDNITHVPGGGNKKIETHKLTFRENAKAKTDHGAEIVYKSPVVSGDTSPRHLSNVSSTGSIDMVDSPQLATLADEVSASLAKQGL

B1: human wild-type p38γ (HA-tagged) (enzyme)
chain: MSSPPPARSGFYRQEVTKTAWEVRAVYRDLQPVGSGAYGAVCSAVDGRTGAKVAIKKLYRPFQSELFAKRAYRELRLLKHMRHENVIGLLDVFTPDETLDDFTDFYLVMPFMGTDLGKLMKHEKLGEDRIQFLVYQMLKGLRYIHAAGIIHRDLKPGNLAVNEDCELKILDFGLARQADSEMTGYVVTRWYRAPEVILNWMRYTQTVDIWSVGCIMAEMITGKTLFKGSDHLDQLKEIMKVTGTPPAEFVQRLQSDEAKNYMKGLPELEKKDFASILTNASPLAVNLLEKMLVLDAEQRVTAGEALAHPYFESLHDTEDEPQVQKYDDSFDDVDRTLDEWKRVTYKEVLSFKPPRQLGARVSKETPL
notes: Recombinant p38γ from bacteria was used in the in vitro kinase assays; also called p38γ WT; wild-type p38γ (WT); not shown: N-terminal HA-tag
Consider B1, for which the binding result in test [1] and in test [2] was “binds” in each case.

B2: constitutive active p38γ (D179A), HA-tagged (enzyme)
chain: MSSPPPARSGFYRQEVTKTAWEVRAVYRDLQPVGSGAYGAVCSAVDGRTGAKVAIKKLYRPFQSELFAKRAYRELRLLKHMRHENVIGLLDVFTPDETLDDFTDFYLVMPFMGTDLGKLMKHEKLGEDRIQFLVYQMLKGLRYIHAAGIIHRDLKPGNLAVNEDCELKILDFGLARQAASEMTGYVVTRWYRAPEVILNWMRYTQTVDIWSVGCIMAEMITGKTLFKGSDHLDQLKEIMKVTGTPPAEFVQRLQSDEAKNYMKGLPELEKKDFASILTNASPLAVNLLEKMLVLDAEQRVTAGEALAHPYFESLHDTEDEPQVQKYDDSFDDVDRTLDEWKRVTYKEVLSFKPPRQLGARVSKETPL
notes: also called p38γ^CA; p38γ CA; not shown: N-terminal HA-tag
B2: the binding result in test [1] and in test [2] was “binds” in each case.

B3: WT p38γ with deletion of the C-terminal PDZ-binding motif (ΔPm) (enzyme)
chain: MSSPPPARSGFYRQEVTKTAWEVRAVYRDLQPVGSGAYGAVCSAVDGRTGAKVAIKKLYRPFQSELFAKRAYRELRLLKHMRHENVIGLLDVFTPDETLDDFTDFYLVMPFMGTDLGKLMKHEKLGEDRIQFLVYQMLKGLRYIHAAGIIHRDLKPGNLAVNEDCELKILDFGLARQADSEMTGYVVTRWYRAPEVILNWMRYTQTVDIWSVGCIMAEMITGKTLFKGSDHLDQLKEIMKVTGTPPAEFVQRLQSDEAKNYMKGLPELEKKDFASILTNASPLAVNLLEKMLVLDAEQRVTAGEALAHPYFESLHDTEDEPQVQKYDDSFDDVDRTLDEWKRVTYKEVLSFKPPRQLGARVSK
notes: also called p38γ ΔPm; ΔPDZm; not shown: N-terminal HA-tag
Consider B3, for which the binding result in test [3] is given as “no binding”.

B4: CA p38γ with deletion of the C-terminal PDZ-binding motif (ΔPm) (enzyme)
chain: MSSPPPARSGFYRQEVTKTAWEVRAVYRDLQPVGSGAYGAVCSAVDGRTGAKVAIKKLYRPFQSELFAKRAYRELRLLKHMRHENVIGLLDVFTPDETLDDFTDFYLVMPFMGTDLGKLMKHEKLGEDRIQFLVYQMLKGLRYIHAAGIIHRDLKPGNLAVNEDCELKILDFGLARQAASEMTGYVVTRWYRAPEVILNWMRYTQTVDIWSVGCIMAEMITGKTLFKGSDHLDQLKEIMKVTGTPPAEFVQRLQSDEAKNYMKGLPELEKKDFASILTNASPLAVNLLEKMLVLDAEQRVTAGEALAHPYFESLHDTEDEPQVQKYDDSFDDVDRTLDEWKRVTYKEVLSFKPPRQLGARVSK
notes: also called p38γ^CA ΔPm; ΔPDZm; not shown: N-terminal HA-tag
Regarding B4, the binding result in test [3] is on record as “no binding”.
